The assay concerns the target Savinase® (subtilisin 309) (UniProt P29600). The assay is described as follows: cell-based or functional assay.
UniProt P29600, sequence (P29600 whole entry): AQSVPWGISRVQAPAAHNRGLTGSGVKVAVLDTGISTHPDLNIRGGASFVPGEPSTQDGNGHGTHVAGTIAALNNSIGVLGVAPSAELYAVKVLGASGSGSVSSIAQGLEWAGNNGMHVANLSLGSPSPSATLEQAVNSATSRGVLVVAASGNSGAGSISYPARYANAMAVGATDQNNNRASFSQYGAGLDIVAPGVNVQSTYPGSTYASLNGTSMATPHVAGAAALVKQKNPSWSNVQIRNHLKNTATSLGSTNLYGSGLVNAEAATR

In the case of “trypsin inhibitor type IV-0 (Ovo-inhibitor), Sigma T-1886 (from UniProt P10184 69-517)”, the RA (%) (Residual Activity, Ovo-inhibition Assay; hydrolysis of Suc-Ala-Ala-Pro-Phe-pNA with and without inhibitor) is < 5%.

The values above are taken from patent publication EP1313846B1.
